T1: α-Catenin (endogenous, from HaCaT cells), P35221
T1 chain: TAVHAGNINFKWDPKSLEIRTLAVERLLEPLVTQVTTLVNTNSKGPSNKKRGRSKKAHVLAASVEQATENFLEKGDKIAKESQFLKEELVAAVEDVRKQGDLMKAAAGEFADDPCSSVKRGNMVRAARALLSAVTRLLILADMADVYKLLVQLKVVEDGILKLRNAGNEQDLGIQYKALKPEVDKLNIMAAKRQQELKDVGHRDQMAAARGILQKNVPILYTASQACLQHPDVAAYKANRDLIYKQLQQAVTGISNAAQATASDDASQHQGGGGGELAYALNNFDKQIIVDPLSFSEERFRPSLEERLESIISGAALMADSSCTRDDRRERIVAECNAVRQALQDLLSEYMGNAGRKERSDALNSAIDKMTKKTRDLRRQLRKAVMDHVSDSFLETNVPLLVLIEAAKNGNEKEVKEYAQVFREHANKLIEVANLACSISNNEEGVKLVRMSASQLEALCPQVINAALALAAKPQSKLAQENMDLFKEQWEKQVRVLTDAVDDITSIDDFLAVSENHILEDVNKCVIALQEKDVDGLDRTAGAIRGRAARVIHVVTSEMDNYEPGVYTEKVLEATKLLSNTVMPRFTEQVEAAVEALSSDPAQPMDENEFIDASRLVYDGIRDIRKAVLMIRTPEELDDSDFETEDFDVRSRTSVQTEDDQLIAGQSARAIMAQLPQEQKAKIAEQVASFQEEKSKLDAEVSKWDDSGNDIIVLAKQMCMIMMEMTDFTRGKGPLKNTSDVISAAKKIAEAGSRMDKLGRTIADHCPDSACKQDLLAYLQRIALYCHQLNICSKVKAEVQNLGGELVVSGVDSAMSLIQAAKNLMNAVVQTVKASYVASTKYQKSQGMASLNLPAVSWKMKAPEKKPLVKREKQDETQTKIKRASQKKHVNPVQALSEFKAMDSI

T2: Recombinant human α-Catenin protein
T2 chain: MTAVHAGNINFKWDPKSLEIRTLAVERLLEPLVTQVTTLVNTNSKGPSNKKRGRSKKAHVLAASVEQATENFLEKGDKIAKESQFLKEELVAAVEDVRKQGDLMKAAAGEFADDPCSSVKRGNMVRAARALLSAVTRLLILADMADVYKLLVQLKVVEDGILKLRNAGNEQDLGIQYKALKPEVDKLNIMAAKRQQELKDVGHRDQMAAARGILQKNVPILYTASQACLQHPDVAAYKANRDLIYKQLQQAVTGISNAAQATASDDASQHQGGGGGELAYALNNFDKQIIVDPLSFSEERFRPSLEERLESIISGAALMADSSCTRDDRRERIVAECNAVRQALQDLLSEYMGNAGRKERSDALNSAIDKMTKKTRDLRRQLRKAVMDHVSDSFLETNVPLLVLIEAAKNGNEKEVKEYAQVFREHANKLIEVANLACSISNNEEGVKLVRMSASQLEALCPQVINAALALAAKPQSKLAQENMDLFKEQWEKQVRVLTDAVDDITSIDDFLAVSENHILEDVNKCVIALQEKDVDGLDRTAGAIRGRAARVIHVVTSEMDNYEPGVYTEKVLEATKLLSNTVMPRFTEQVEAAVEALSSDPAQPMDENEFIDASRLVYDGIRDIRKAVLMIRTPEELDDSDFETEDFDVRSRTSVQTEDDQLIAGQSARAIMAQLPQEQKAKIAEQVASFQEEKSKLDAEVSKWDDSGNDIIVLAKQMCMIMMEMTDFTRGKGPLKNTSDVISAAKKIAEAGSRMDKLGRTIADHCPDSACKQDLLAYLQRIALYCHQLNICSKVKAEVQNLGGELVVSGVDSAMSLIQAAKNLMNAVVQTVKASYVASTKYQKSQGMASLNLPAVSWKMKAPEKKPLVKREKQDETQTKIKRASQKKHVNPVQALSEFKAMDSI

B1: recombinant human active caspase-3 (protein)
chain: SGISLDNSYKMDYPEMGLCIIINNKNFHKSTGMTSRSGTDVDAANLRETFRNLKYEVRNKNDLTREEIVELMRDVSKEDHSKRSSFVCVLLSHGEEGIIFGTNGPVDLKKITNFFRGDRCRSLTGKPKLFIIQACRGTELDCGIETDSGVDDDMACHKIPVEADFLYAYSTAPGYYSWRNSKDGSWFIQSLCAMLKQYADKLEFMHILTRVNRKVATEFESFSFDATFHAKKQIPCIVSMLTKELYFYH
B2: activated (cleaved) Caspase-3 (endogenous, from mouse dorsal skin) (enzyme, UniProt P70677 29-277, looked up)
chain: SGIYLDSSYKMDYPEMGICIIINNKNFHKSTGMSSRSGTDVDAANLRETFMGLKYQVRNKNDLTREDILELMDSVSKEDHSKRSSFVCVILSHGDEGVIYGTNGPVELKKLTSFFRGDYCRSLTGKPKLFIIQACRGTELDCGIETDSGTDEEMACQKIPVEADFLYAYSTAPGYYSWRNSKDGSWFIQSLCSMLKLYAHKLEFMHILTRVNRKVATEFESFSLDSTFHAKKQIPCIVSMLTKELYFYH
notes: also called CP3

Experiments:
[1] = biological target: T1, α-Catenin (endogenous, from HaCaT …)
[2] = biological target: recombinant mouse H3/H4 heterodimer, P62806
[3] = biological target: T2, Recombinant human α-Catenin protein
[4] = biological target: Yes associated protein 1 (YAP) (endogenous, from mouse dorsal skin) (mouse, UniProt P46938 1-488, limits assumed); assay: co-immunoprecipitation of endogenous proteins from mouse skin, Western blot
Yes associated protein 1 (YAP) (endogenous, from mouse dorsal skin), sequence (P46938 whole entry): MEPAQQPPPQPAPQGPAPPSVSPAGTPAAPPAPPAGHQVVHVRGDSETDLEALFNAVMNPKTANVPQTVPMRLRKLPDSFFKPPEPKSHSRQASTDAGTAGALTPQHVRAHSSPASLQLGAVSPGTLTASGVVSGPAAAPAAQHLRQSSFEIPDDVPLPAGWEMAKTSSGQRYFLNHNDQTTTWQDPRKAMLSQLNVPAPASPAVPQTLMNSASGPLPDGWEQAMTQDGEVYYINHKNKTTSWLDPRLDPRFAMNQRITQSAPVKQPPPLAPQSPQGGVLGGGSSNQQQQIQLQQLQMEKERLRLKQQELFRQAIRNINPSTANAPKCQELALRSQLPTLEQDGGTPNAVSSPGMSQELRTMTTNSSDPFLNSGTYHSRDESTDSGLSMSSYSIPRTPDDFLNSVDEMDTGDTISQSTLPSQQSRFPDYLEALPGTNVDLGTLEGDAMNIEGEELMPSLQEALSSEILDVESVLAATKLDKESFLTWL
Method: Protein extraction, Western Blot and Co-immunoprecipitation—Skin tissues were disrupted using homogenizer. Cells were washed with ice-cold PBS and collected on ice before centrifugation (4,000 rpm, 5 minutes at 4° C.), lysed in lysis buffer with protease inhibitors, and then incubated on ice for 30 minutes. After centrifugation (14,000 rpm, 15 minutes at 4° C.), the proteins (supernatant) were removed and quantified (Bradford reagent, BioRad). The NE-PER Nuclear and Cytoplasmic Extraction Reagents Kit (Thermo Scientific) was used to separate cellular fractions. For CO-IP, equal amounts of cell lysates were incubated with antibody, and immunocomplexes were captured on Protein-A/G Agarose beads. […] Membranes were blocked in 5% dry skimmed milk in PBS-T and incubated with primary antibodies (1:1000).

| Binder | cleavage in HaCaT protein lysate, Western blot with antibodies for the C and N termini of α-Catenin [1] | release of 14-3-3 from α-Catenin pull-down complexes after in vitro cleavage, Western blot [1] | in vitro cleavage assay, Coomassie staining [2] | in vitro cleavage assay, SDS-electrophoresis and Coomassie staining [3] | binding result [4] |
| --- | --- | --- | --- | --- | --- |
| B1 | addition of cleaved Caspase-3 results in a major decrease in the level of full-length α-Catenin | Caspase-3-mediated cleavage facilitates the release of 14-3-3 from α-Catenin | Caspase-3 was not able to cleave either histones H2A/H2B or H3/H4 | a dramatic decrease in the levels of full length α-Catenin (FIG. 4M) (Caspase-3 cleaved α-Catenin), giving rise to two novel bands at a molecular weight of ˜14 kDa and ˜17 kDa |  |
| B2 |  |  |  |  | no binding |
